We go through one molecule from patent publication US20200369754A1 (published 2020).

The target of this test is T1, Tau peptide A6940 (biotin (bound via biotin to a streptavidin biosensor in the Octet assay; position of the biotin not stated)).
T1 peptide: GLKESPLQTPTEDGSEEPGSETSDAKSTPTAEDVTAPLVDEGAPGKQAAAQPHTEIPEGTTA
Briefly: ITC.

B1: CBTAU-28.1 (S32R[VL];E35K[VL]) (antibody, V domains shown)
VH: QVQLQQSGAEVKKPGESLKISCEASGYSFTNYWIGWVRQMPGKGLEWMGIIYPGDSDTRYSPPFQGQVTITADRSITTAYLEWSSLKASDTAMYYCARVGRPSKGGWFDPWGQGTLVTVSS
VL: DIQMTQSPDSLAVSLGERATINCESSQTLLYRSNKKNYLAWYQQKPGQPPKLLISWASTPESGVPDRFSGSGSGTSFTLTISSLQAEDVAVYYCQQYYNSPYTFGQGTRLEIK
For the molecule B1, the equilibrium dissociation constant (Kd) was found to be 220 nM.
